Test results taken from patent publication US20230057847A1, “GLP2 RECEPTOR AGONISTS AND METHODS OF USE” (The Scripps Research Institute, priority 2019, published 2023).
Bridges are numbered along the chain shown (N, C = ends). Where no end group is shown, it is not given here. [ ]: non-standard residue; d: D form. Nle = CCCC[C@H](N)C(=O)O; Nva = CCC[C@H](N)C(=O)O; L5A = not defined here; A1 = not defined here; K1 = not defined here; K5 = not defined here; Aib = CC(C)(N)C(=O)O

B1: Conjugate 11: GLP2-2G-10Nle-1K-EX4 (SEQ ID NO. 10) with staple K5 at positions 17, 24 (peptide)
peptide: HGDGSFSDELNTILDNKAARDFIKWLIQTKITDPSSGAPPPS
modifications: not fully specified; here or on the partner: Nle at 10; staple K5 (lactam) attached at positions 17, 24 (lysines)

Experiments:
[1] = molecular target: GCGR; assay: cell-based or functional assay
[2] = molecular target: GIPR; assay: cell-based or functional assay
[3] = molecular target: GLP-1R; assay: cell-based or functional assay
[4] = Pharmacokinetics of peptides in mice (plasma levels by GLP-2R cell based reporter assay); details: mouse, in vivo
[5] = molecular target: mouse GLP2R (mouse) (UniProt Q5IXF8); assay: cell-based or functional assay
[6] = molecular target: cyno monkey GLP2R (cyno monkey) (UniProt G1E7B0); assay: cell-based or functional assay
[7] = tested on: mouse model of environmental enteric dysfunction (EED); assay: Weaning undernutrition mouse model of environmental enteric dysfunction (EED); assay type: in vivo, mice; details: animals weaned to CD and to RBD diet, vs untreated
Procedure: A weaning undernutrition model was used to assess the ability of GLP2-2G-10Nle-1K-EX4-K5 to treat environmental enteric dysfunction (EED). All dams were placed on an isocaloric Northeast Brazil (Regional Basic Diet—RBD), which was moderately deficient in protein, fat and minerals when their pups were 10 days old. At weaning (3 weeks of age), pups were placed on either a standard control diet (CD) or continued on RBD. At 4 weeks of age, weanlings were given drug or placebo (0.1 mg/kg formulated in PBS (vehicle)) once a day subcutaneously for 2-3 weeks. Bodyweight and food consumption were measured twice weekly. Stool was collected at weaning, 6 weeks of age, and 8 weeks of age for calorimetry and microbiome. Oral FITC-dextran was used as a measurement of barrier function. At 6 weeks of age, mice were euthanized, and jejunal tissue was collected for morphology, immunohistochemistry, and for chamber analysis of transmucosal resistance and permeability.

[8] = molecular target: 168 GPCR targets (gpcrMAX Panel by DiscoverRx); assay: cell-based or functional assay
[9] = molecular target: T1, human GLP-2R (human, UniProt O95838 1-553); assay: cell-based or functional assay
T1 sequence (looked up): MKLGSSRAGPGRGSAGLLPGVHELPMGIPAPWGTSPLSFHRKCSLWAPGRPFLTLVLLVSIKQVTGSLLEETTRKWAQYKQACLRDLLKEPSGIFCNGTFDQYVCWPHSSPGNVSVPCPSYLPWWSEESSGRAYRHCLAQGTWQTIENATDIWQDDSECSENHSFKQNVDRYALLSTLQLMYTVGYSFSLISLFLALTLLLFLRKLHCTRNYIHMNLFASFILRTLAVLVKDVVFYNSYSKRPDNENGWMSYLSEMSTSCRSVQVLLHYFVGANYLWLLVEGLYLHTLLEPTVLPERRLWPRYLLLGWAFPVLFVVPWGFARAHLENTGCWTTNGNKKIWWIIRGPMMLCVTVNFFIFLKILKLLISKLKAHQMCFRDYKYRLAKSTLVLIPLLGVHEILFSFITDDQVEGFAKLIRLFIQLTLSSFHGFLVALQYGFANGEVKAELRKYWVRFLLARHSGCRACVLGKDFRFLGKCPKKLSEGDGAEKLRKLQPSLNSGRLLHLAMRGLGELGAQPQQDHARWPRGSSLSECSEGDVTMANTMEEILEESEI

mouse GLP2R (mouse), sequence (Q5IXF8 whole entry): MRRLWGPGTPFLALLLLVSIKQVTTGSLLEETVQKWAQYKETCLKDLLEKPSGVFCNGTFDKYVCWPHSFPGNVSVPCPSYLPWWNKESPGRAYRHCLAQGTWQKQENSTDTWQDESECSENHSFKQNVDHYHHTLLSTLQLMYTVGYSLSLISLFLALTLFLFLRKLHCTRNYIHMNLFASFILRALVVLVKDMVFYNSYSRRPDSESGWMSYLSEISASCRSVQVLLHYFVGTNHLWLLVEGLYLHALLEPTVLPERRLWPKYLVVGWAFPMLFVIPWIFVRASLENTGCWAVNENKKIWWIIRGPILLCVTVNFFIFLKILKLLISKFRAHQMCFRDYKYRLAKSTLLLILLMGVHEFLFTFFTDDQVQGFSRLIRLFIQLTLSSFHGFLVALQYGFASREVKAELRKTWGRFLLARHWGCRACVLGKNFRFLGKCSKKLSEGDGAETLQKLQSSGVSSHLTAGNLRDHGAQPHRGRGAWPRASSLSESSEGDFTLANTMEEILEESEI

Molecule	GLP-2R - cAMP 0% FBS/nM (EC50, CRE-luciferase reporter) [9] [nM]	also measured
GLP-2 (ligand)		IC50 [nM] (665/615 ratio, free cAMP) [1]: > 500 nM; IC50 [nM] (665/615 ratio, free cAMP) [2]: > 500 nM; IC50 [nM] (665/615 ratio, free cAMP) [3]: > 500 nM
CC[C@H](C)[C@@H]1NC(=O)[C@H](Cc2ccccc2)NC(=O)[C@H](CC(=O)O)NC(=O)[C@H](CCCNC(=N)N)NC(=O)[C@H](C)NC(=O)[C@H](C)NC(=O)[C@@H](NC(=O)[C@H](CC(N)=O)NC(=O)[C@H](CC(=O)O)NC(=O)[C@H](CC(C)C)NC(=O)[C@@H](NC(=O)[C@@H](NC(=O)[C@H](CC(N)=O)NC(=O)[C@H](CCSC)NC(=O)[C@H](CCC(=O)O)NC(=O)[C@H](CC(=O)O)NC(=O)[C@H](CO)NC(=O)[C@H](Cc2ccccc2)NC(=O)[C@H](CO)NC(=O)CNC(=O)[C@H](CC(=O)O)NC(=O)CNC(=O)[C@@H](N)Cc2c[nH]cn2)[C@@H](C)O)[C@@H](C)CC)CCCCNC(=O)CN(C(=O)CCNC(=O)CCOCCOCCNC(=O)CCOCCOCCNC(=O)CC[C@H](NC(=O)CCCCCCCCCCCCCCCCC(=O)O)C(=O)O)CC(=O)NCCCC[C@@H](C(=O)N[C@@H](Cc2c[nH]c3ccccc23)C(=O)N[C@@H](CC(C)C)C(=O)N[C@H](C(=O)N[C@@H](CCC(N)=O)C(=O)N[C@H](C(=O)N[C@@H](CCCCN)C(=O)N[C@H](C(=O)N[C@H](C(=O)N[C@@H](CC(=O)O)C(=O)N2CCC[C@H]2C(=O)N[C@@H](CO)C(=O)N[C@@H](CO)C(=O)NCC(=O)N[C@@H](C)C(=O)N2CCC[C@H]2C(=O)N2CCC[C@H]2C(=O)N2CCC[C@H]2C(=O)N[C@@H](CO)C(N)=O)[C@@H](C)O)[C@@H](C)CC)[C@@H](C)O)[C@@H](C)CC)NC1=O [Conjugate 17]		half-life ([4]; 10 nmol/kg, read-out: Mouse T½/h (converted)): 8.53 ± 0.044 h; clearance ([4]; CD1 female mice, 10 nmol/kg iv or sc, read-out: Mouse CL/(mL/h/kg) (converted)): 14.4 mL/h/kg
Teduglutide (peptide)		IC50 [nM] (665/615 ratio, free cAMP) [5]: 0.07 nM; EC50 [nM] (ratio of 665 to 615) [6]: 0.009 nM
Apraglutide (peptide)		IC50 [nM] (665/615 ratio, free cAMP) [5]: 0.04 nM
CC[C@H](C)[C@H](NC(=O)[C@H](Cc1ccccc1)NC(=O)[C@H](CC(=O)O)NC(=O)[C@H](CCCNC(=N)N)NC(=O)[C@H](C)NC(=O)[C@H](C)NC(=O)[C@H](CC(C)C)NC(=O)[C@H](CC(N)=O)NC(=O)[C@H](CC(=O)O)NC(=O)[C@H](CC(C)C)NC(=O)[C@@H](NC(=O)[C@@H](NC(=O)[C@H](CC(N)=O)NC(=O)[C@H](CCSC)NC(=O)[C@H](CCC(=O)O)NC(=O)[C@H](CC(=O)O)NC(=O)[C@H](CO)NC(=O)[C@H](Cc1ccccc1)NC(=O)[C@H](CO)NC(=O)CNC(=O)[C@H](CC(=O)O)NC(=O)[C@H](C)NC(=O)[C@@H](N)Cc1c[nH]cn1)[C@@H](C)O)[C@@H](C)CC)C(=O)N[C@@H](CC(N)=O)C(=O)N[C@@H](Cc1c[nH]c2ccccc12)C(=O)N[C@@H](CC(C)C)C(=O)N[C@H](C(=O)N[C@@H](CCC(N)=O)C(=O)N[C@H](C(=O)N[C@@H](CCCCN)C(=O)N[C@H](C(=O)N[C@H](C(=O)N[C@@H](CC(=O)O)C(=O)O)[C@@H](C)O)[C@@H](C)CC)[C@@H](C)O)[C@@H](C)CC [GLP-2, reference compound]		length of the small intestine [7]: significant increase
GIP (ligand)		IC50 [nM] (665/615 ratio, free cAMP) [2]: 0.02 nM
HGDGSFSDEMNTILDNCAARDFICWLIQTKITDPSSGAPPPS (linker 17-24 via L5A; not fully specified; ends not checked) [Conjugate 1: GLP2-2G-1-EX4 (SEQ ID NO. 1) with staple L5A at positions 17, 24]		PathHunter beta-arrestin enzyme fragment complementation, agonist mode, % activity [8]: < 30 % activity; PathHunter beta-arrestin enzyme fragment complementation, antagonist mode, % inhibition [8]: < 35 % inhibition
HGDGSFSDEMNTILDNXAARDFIXWLIQTKITDPSSGAPPPS (Orn at 17 and 24; staple K5 attached at positions 17, 24 (ornithines)) [Conjugate 25: GLP2-2G-1Orn-EX4 (SEQ ID NO. 20) with staple K5 at positions 17, 24]	2.11	
HGDGSFSDEMNTILDNKAARDFIKWLIQTKITDPSSGAPPPS (bridge 17-24 via K1; ends not checked) [Conjugate 19: GLP2-2G-1K-EX4 (SEQ ID NO. 16) with staple K1 at positions 17, 24]	0.15	
B1		PathHunter beta-arrestin enzyme fragment complementation, agonist mode, % activity [8]: < 30 % activity; PathHunter beta-arrestin enzyme fragment complementation, antagonist mode, % inhibition [8]: < 35 % inhibition
HGDGSFSDEMNTILDNKAARDFIKWLIQTKITDPSSGAPPPS (bridge 17-24; not fully specified (bridges); ends not checked) [Conjugate 17: GLP2-2G-1K-EX4 (SEQ ID NO. 16) with staple K5 at positions 17, 24]	1.07	
HGDGSFSDEMNTILDNKAARDFIKWLIQTKITDPSSGAPPPS (bridge 17-24 via A1; ends not checked) [Conjugate 20: GLP2-2G-1K-EX4 (SEQ ID NO. 16) with staple A1 at positions 17, 24]	0.09	
HGDGSFSDKMNTILDKLAARDFINWLIQTKITDPSSGAPPPS (bridge 9-16; not fully specified (bridges); ends not checked) [Conjugate 23: GLP2-2G-5K-EX4 (SEQ ID NO. 18) with staple K5 at positions 9, 16]	1.25	
HGDGSFSDEMCTILDNLCARDFINWLIQTKITDPSSGAPPPS (linker 11-18 via L5A; ends not checked) [Conjugate 10: GLP2-2G-6-EX4 (SEQ ID NO. 9) with staple L5A at positions 11, 18]	2.09	GLP-2R - cAMP 10% FBS/nM (EC50, CRE-luciferase reporter) [9]: 102 nM
HGDGSFSDEVNTILDNCAARDFICWLIQTKITDPSSGAPPPS (linker 17-24 via L5A; reading uncertain) [Conjugate 7: GLP2-2G-10V-1-EX4 (SEQ ID NO. 7) with staple L5A at positions 17, 24]	1.45	
HGDGSFSDELNTILDNCAARDFICWLIQTKITDPSSGAPPPS (linker 17-24 via L5A; reading uncertain) [Conjugate 3: GLP2-2G-10L-1-EX4 (SEQ ID NO. 3) with staple L5A at positions 17, 24]	0.87	
HGDGSFSDE[Aib]NTILDNCAARDFICWLIQTKITDPSSGAPPPS (linker 17-24 via L5A; reading uncertain) [Conjugate 5: GLP2-2G-10Aib-1-EX4 (SEQ ID NO. 5) with staple L5A at positions 17, 24]	8.71	
HGDGSFSDE[Nle][dF]TILDNKAARDFIKWLIQTKITDPSSGAPPPS (bridge 17-24; not fully specified (bridges); ends not checked) [Conjugate 12: GLP2-2G-10Nle-11f-1K-EX4 (SEQ ID NO. 11) with staple K5 at positions 17, 24]	2.13	
HGDGSFSDE[Nle]NSLLDNKAARDFIKWLIQTKITDPSSGAPPPS (bridge 17-24; not fully specified (bridges); ends not checked) [Conjugate 13: GLP2-2G-10Nle-12S-13L-1K-EX4 (SEQ ID NO. 12) with staple K5 at positions 17, 24]	3.78	
HGDGSFSDE[Nle]NT[Nle][Nle]DNKAARDFIKWLIQTKITDPSSGAPPPS (linker 17-24 via K5; reading uncertain) [Conjugate 15: GLP2-2G-10Nle-13Nle-14Nle-1K-EX4 (SEQ ID NO. 14) with staple K5 at positions 17, 24]	1.99	
HGDGSFSDE[Nle]NTA[Nle]DNKAARDFIKWLIQTKITDPSSGAPPPS (linker 17-24 via K5; reading uncertain) [Conjugate 14: GLP2-2G-10Nle-13A-14Nle-1K-EX4 (SEQ ID NO. 13) with staple K5 at positions 17, 24]	2.68	
HGDGSFSDK[Nle]NTILDKLAARDFINWLIQTKITDPSSGAPPPS (linker 9-16 via K5; reading uncertain) [Conjugate 24: GLP2-2G-10Nle-5K-EX4 (SEQ ID NO. 19) with staple K5 at positions 9, 16]	8.36	
HGDGSFSDE[Nva]NTILDNCAARDFICWLIQTKITDPSSGAPPPS (linker 17-24 via L5A; reading uncertain) [Conjugate 6: GLP2-2G-10Nva-1-EX4 (SEQ ID NO. 6) with staple L5A at positions 17, 24]	5.74	
HGDGSFSDEM[dF]TILDNKAARDFIKWLIQTKITDPSSGAPPPS (linker 17-24 via K5; reading uncertain) [Conjugate 18: GLP2-2G-11f-1K-EX4 (SEQ ID NO. 17) with staple K5 at positions 17, 24]	1.41	
HGDGSFSDE[Nle]ATA[Nle]DAKAARDFIKWLIQTKITDPSSGAPPPS (linker 17-24 via K5; reading uncertain)	1.33	
